Residue numbers refer to the chain shown, from its start.
B1: C1034 (antibody, V domains shown)
VH: QLQLQESGPGLVKPSETLSLTCTVSGGSVSSNNHYWGWIRQPPGKGLEWIGSISSSGSTHHNPSLRSRVTISVDTSKNHFSLKLNSVTATDTAVYYCARVDSSGWYTGDVFDVWGQGTMVTVSS
VL: DIQMTQSPSSLSASVGDRVTITCRASQTINNYLNWYQQKPGKPPKLLIYAAFSLHSGVPSRFSGSRSGTDFTLTISSLQPEDFATYYCQHSYSTMCSFGQGTKLEIK
notes: IgG; V domains only
B2: C838 (antibody, V domains shown)
VH: EVQLVESGGGLVQPGKSLRLSCTASGFTFEDYAMHWVRQAPGKGLEWVSGINWKSGSRGYADSAKGRFTISGNTAKNTLHLQMNSLRAEDTAFYYCAKAGVRNIAAAGPDLNFDFWGQGTLVTVSS
VL: EIVLTQSPATLSLSPGERATLSCRASQSVGTYLAWYQHKLGQAPRLLIYDATKRATGIPARFSGSGSGTDFTLTISSLEPEDFAIYYCQQRITFGQGTRLEIK
notes: IgG; V domains only
B3: C1035 (antibody, V domains shown)
VH: EVQLVESGGGLIQPGGSLRLSCAASGLTVSRNYMNWVRQAPGKGLEWVSVMYSGGSTFYADSVKGRFTISRDNSKNTLYLQMNSLRAEDTAVYYCARESYGMDVWGQGTTVTVSS
VL: EIVLTQSPGTLSLSPGERATLSCRASQSFSSTYLAWYQQKPGQAPRLLIYGASSRATGIPDRFSGSGSGTDFTLTISRLEPEDFAVYYCQQYVTSPWTFGQGTKVEIK
notes: IgG; V domains only
B4: C1036 (antibody, V domains shown)
VH: B3 VH with T28I, A40V, S53A, N73D, A87P
VL: B3 VL with F29I
notes: IgG; V domains only
B5: C1044 (antibody, V domains shown)
VH: QVQLQESGPGLVKPSQTLSLTCTVSGGSISSGNYYLTWIRQPAGKGLEWIGHIYTSGSTNYNPSLKSRVTISVDTSMNQFSLKLSSVTAADTAVYYCARDIPPTWYFDLWGRGTLVTVSS
VL: SYELTQPPSVSVAPGKTARITCGGNNIGSKNVHWYQQKPGQAPVLVVYDDSDRPSGIPERFSGSNSGNTATLTISRVEAGDEAGYYCQVWDSTSDHLFWVFGGGTKLTVL
notes: IgG; V domains only
B6: C1045 (antibody, V domains shown)
VH: B5 VH with G27D, L36W, T37S, T59P, N62K, V73L, M77K, S85T, V94M, P103S
VL: B5 VL with T21P, N25T, N26D, V46A, N68S, G84D, T93S, S94G, H96R, F98S
notes: IgG; V domains only
B7: C950 (antibody, V domains shown)
VH: QVQLVESGGGLVKPGGSLRLSCAASGFTFSDYCVTWIRQAPGKGLEWLSYSNTNDSSRSYADSVKGRFTISRDNAKNSLYLQMDSLRAEDTAVYYCARRGDGNVPLFHYYYMDVWGKGTTVTVSS
VL: QSVLTQPPSASGTAGQRVTISCSGGSSNIGSNTVHWYQQLPGTAPKLLIYSNYKRPSGVPDRFSGSKSGASASLAISGLQSEDEAEYYCAAWDDSANGPIFGGGTKLTVL
notes: IgG; V domains only
B8: C1038 (antibody, V domains shown)
VH: QVQLVQSGAEVKKPGASVKVSCKASGYTFTSYYMHWVRQAPGQGLEWMGIINPSGGSTRYAQKFQGRVTMTRDTSTSTVYMELSSLRSEDTAVYYCAREGVGGTSYFDYWGQGTLVTVSS
VL: SYELTQPPSVSVAPGKTARITCGGNNIGSKSVHWYQQKPGQAPVLVVYDDSDRPSGIPERFSGSNSGNTATLTISRVEAGDEADYYCQVWDSSSDPYVFGTGTKVTVL
notes: IgG; V domains only
B9: C1039 (antibody, V domains shown)
VH: QVQLVQSGAEVKKPGASVKVSCKASGYTFTSHYMHWVRQAPGQGLEWMGIINPRTRYAQMFQGRVSMNRDTSTSTVYMELSSLTSEDTAVYYCAREGLGATAYFDYWGQGTLVTVSS
VL: B8 VL with R19G, N25S, N26D, T106S
notes: IgG; V domains only
B10: C1041 (antibody, V domains shown)
VH: QVQLVQSGAEVKKPGASVKVSCKASGYTFSDHYIYWVRQAPGQGLEWMGIINPSAGSTSYAQKFQGRVTMTRDTSTSTVYMELSSLRSEDTAVYYCARDIVFVPATMAMDVWGLGTTVTVSS
VL: EIVLTQSPATLSLSPGERATLSCRASQSVSRYLAWYQQKPGQAPRLLIYDASNRATGIPARFSGSGSGTDFTLTISSLEPEDFAVYYCQQRSNWLFTFGPGTKVDIK
notes: IgG; V domains only
B11: C1042 (antibody, V domains shown)
VH: B10 VH with A55G, R87K, A97S, L114Q
VL: B10 VL
notes: IgG; V domains only
B12: C995 (antibody, V domains shown)
VH: EVQLVESGGGLIQPGRSLRLSCTASGFSVGDYAMSWFRQAPGKGLEWVGFLRNQHYGGTAEYAASVKGRFSISTDASKNIVYLQMDSLKTEDTAVYYCARNDRYIVIVPAEMLYWGQGTLVTVSS
VL: EIVMTQSPATLSVSPGERATLSCRATESVYSNLAWYQQKPGQAPRLLMYDASTRAPGIPARFSGSGSGTEFTLTISSLQSEDFATYYCQQYSNWPPITFGQGTRLEIK
B13: C994 (antibody, V domains shown)
VH: QVQLQESGPGLVKPSGTLSLTCAVSGVSISNTNWWNWVRQPPGKGLEWIGEIYHTGSARYNPSLRSRVTISVDKSKNQFSLRLNSATAADTAIYYCARAQTPEFGELLYWGQGALVTVSS
VL: DIQMTQSPSSLSASVGDRVTITCRASQSITDHLNWYQQKPGKAPKLLIYAASSLQTGVPSRFSGSGSETDFTLTISTLQPEDFATYYCQQSYGPPTYSFGQGTKLEIK
B14: C984 (antibody, V domains shown)
VH: QVQLVQSGTEVKKPGDSVQVSCKTSGYSFTGYYIHWVRQAPGQGLEWMGRINPNSGGTNYAQKFQGRVIMTRDTSITTAFMELTRLRYDDTAVYFCAREPIEGVIGGMIVNYYYMDVWGRGTTVTVSS
VL: QSALTQPASVSGSPGQSITISCTGTSSDVGGYYYVSWYQQHPGKAPKLMIYDVSSRPSGVSNRFSGSKSGNTASLTISGLQAEDEADYYCSSYTSSNTLVVFGGGTKLTVL
B15: C985 (antibody, V domains shown)
VH: QVQLVQSGAEVKKPGASVKVSCKASGYIFTGYYMHWVRQAPGQGLEWMGRINPNSGGSRYAEKFQGRVTMTRDTSIITAFMELRGLKSDDTAVYYCAREPIEAVPAGIIVNYYYMDVWGNGTTVTVSS
VL: B14 VL with Y33N, S54T, N62D, N71T, Y93F, S96A, N97F
B16: C997 (antibody, V domains shown)
VH: EVQLLESGGGLVQPGGSLRLSCAASGFTFSKDAMSWVRQAPGKGLEWVSTVTGSGTNTYYADSVKGRFTISRDNSNNTLYLQMNSLRAEDTAVYYCANHPLGAAEGYYYYYMDVWGKGTTVTVSS
VL: EIVLTQSPGTLSLSPGERGTLSCRASQRVPSSQLAWYQQKSGQAPRLLIYGASSRASGIPDRFSGSGSGTDFTLNISRLEPEDFAVYYCQQYGSLRALTFGGGTKVEIK
B17: C993 (antibody, V domains shown)
VH: EVQLLESGGGLVQPGGSLRLSCAASGFPFSIYAMSWVRQAPGKGLEWVSGMRGTTGTTYYADSVKGRFAISRDNSKNMLHLQMNSLRAEDTAVYYCAKSDHGDYVIGAFDIWGQGTMVTVSS
VL: QSALTQPPSASGSPGQSVTISCTGTSGDVGGYNYVSWYQQHPGKAPKLMIYEVSKRPSGVPDRFSGSKSGNTASLTVSGLQAEDEADYYCNSYAGSNNWVFGGGTKLTVL
B18: C990 (antibody, V domains shown)
VH: EVQLVESGGGLVRPGGSLRLSCAASGFTVGSNFMSWVRQAPGKGLEWVSLIYSGGGTHYAESVKGRFTISRDKSKNTLYLQMNSLRAEDTAVYYCANQGYYYYMDVWGKGTTVTVS
VL: QSALTQPASVSGSPGQSITISCTGTSSDVGAYNYVSWHQHHPGKAPKLIIYDVSNRPSGVSNRFSGSKSGNTASLTISGLQAEDEADYYCTSYTNTTTPWVFGGGTKLTVL
B19: C986 (antibody, V domains shown)
VH: EVQLVQSGAEVKKPGETLKISCKGSGDSFSNYWIGWVRQSPGKGLEWMAIVYPGDSDARYSPSFQGQVTISADKSVTTAYLKWSSLKASDTAIYYCVRGLPVDWYFDLWGRGTLVTVSS
VL: QSVLTQPPSVSGAPEQRVTISCTGSSSNIGAGHDVHWYQQLPGTAPKLLIYNNNNRPSGVPDRFSGSKSGASASLAISGLQAEDEAEYYCQSYDKSLSVLYVLGTGTKVTV
B20: C998 (antibody, V domains shown)
VH: QVQLVQSGAEVKKPGASVKVSCKTSGYTFISYYIHWVRQAPGQGLEWMGIINPDGDNTNYAQKFQGRVTMTRDTSTSTVYMELSSLRFEDTAVYYCARGGAIPALRTAFDIWGQGTMVTVSS
VL: DIQMTQSPSTLSASVGDRVTITCRASQSISNWLAWYQQKPGKAPKLLIYKASSLESGVPSRFSGSGSGTEFTLTISSLQPDDFATYYCQEYNSYYFGQGTKLEIK
B21: C996 (antibody, V domains shown)
VH: EVQLVESGGGLVQPGGSLRLSCVASGFTSTNYDMHWVRQAPGRGLQWVSSIGTAGDTYYPGSVRGRFTISRENAKNSLDLQMNSLRVGDTAVYYCARGQRGYYDRSGYYWGWRAFDIWGQGTMVTVSS
VL: SYELTQPPSVSVAPGQTARITCGGNNIGNKSVYWYQQKPGQAPVLVVYDDSGRPSGIPERFSGSNSANTATLTISRVEAGDEADYYCQVWDNNSDQFGGGTKLTVL
B22: C983 (antibody, V domains shown)
VH: QVQLVESGGGVVRPGRSLRLSCAASGFTFSKYGMHWVRQAPGKGLECVASIAYDGSDDSYADSVKGRFIISRDNSKNTLYLQMNSLRAADTAVYYCAKVLGSYCSASSCHGQRPDYWGQGTLVTVSS
VL: DIQMTQSPSSLSAYVGDRVTITCQASQDISNHLNWYQQKPGKAPNLLIYDASNLETGVPSRFSGSGSGTDFSFTISSLQPEDIATYYCQQYDNVPPWTFGQGTKVEIK
B23: C987 (antibody, V domains shown)
VH: QVQLQESGPGLVKPSETLSLTCNVSGDIINKYYWSWIRQSPGKGLEWIGYIYYSGTTYYNPSLKSRVTMSVGTSKQQFSLRLTSVTAADTAVYYCARMLSTEWSFNWFDPWGPGTLVTVSS
VL: SYELTQPPSVSVSPGQAASITCSGDKLGDKFACWYQQKPGQSPVLVIYQNDKRPTGIPERFSGSNSGNTATLTISGTQAMDEADYFCQAWDSTSASVFGTGTKVTVL
B24: C992 (antibody, V domains shown)
VH: QVQLQESGPGLVKPSQTLSLTCTVSGGSISNGGYFWTWIRQHPVKGLEWIGYIYYSGSPHYNPSLKSRLSISLDTFKNQFSLNLSSVTAADTAVYYCARGDTFGRGYYFDFWGQGTLVTVSS
VL: SYELTQPPSVSVAPGQTARITCGGNNIGTNSMHWYQQKPGQAPVLVVFDDSDRPSGIPERFSGSNSGNTATLTISRVEAGDEADYHCQVWDRSSDRPWVFGGGTKLTVL

target: T1, SARS-COV-2 RBD (SARS-COV-2, UniProt P0DTC2 319-539); assay: ELISA, RBD coated
T1 construct: also called WT RBD

B1 and B2 are within 1.5-fold of each other in EC50: 2.77 ng/mL for the first, 3.03 ng/mL for the second.

B3 and B4 are within 1.5-fold of each other in EC50: 2.05 ng/mL for the first, 1.76 ng/mL for the second.

B5 and B6 are within 1.5-fold of each other in EC50: 3.22 ng/mL for the first, 2.57 ng/mL for the second.

B7 and B8 are within 1.5-fold of each other in EC50: 2.15 ng/mL for the first, 2.46 ng/mL for the second.

B9 and B10 are within 1.5-fold of each other in EC50: 2.61 ng/mL for the first, 3.65 ng/mL for the second.

Work on B11 yielded an EC50 of 4.55 ng/mL.

target: T2, SARS-COV-2 RBD (SARS-COV-2, UniProt P0DTC2 319-539); assay: ELISA, RBD coated on plate
T2 construct: also called WT RBD

First: B12
Second: B13
The EC50 of the first is 1.8-fold higher: 3.79 ng/mL for the first, 2.09 ng/mL for the second.

B14 and B15 are within 1.5-fold of each other in EC50: 2.76 ng/mL for the first, 3.67 ng/mL for the second.

First: B16
Second: B17
The EC50 of the first is 1.5-fold higher: 3.49 ng/mL for the first, 2.29 ng/mL for the second.

First: B18
Second: B19
The EC50 of the first is 1.8-fold lower: 1.85 ng/mL for the first, 3.36 ng/mL for the second.

B20 and B21 are within 1.5-fold of each other in EC50: 2.51 ng/mL for the first, 3.07 ng/mL for the second.

B22 and B23 are within 1.5-fold of each other in EC50: 2.11 ng/mL for the first, 3.11 ng/mL for the second.

B24 gave an EC50 of 3.24 ng/mL.

From patent US20240218057A1 (ROCKEFELLER UNIVERSITY, published 2024)
